Publication PMC2814116 (Journal of Experimental Botany, 2009)

Biological target: the molecule itself
Test: SEC

B1: Recombinant PCNA2 protein of Arabidopsis thaliana (AtPCNA2) (natural protein, UniProt Q9ZW35 1-264, looked up)
chain: MLELRLVQGSLLKKVLEAVKDLVNDANFDCSTTGFSLQAMDSSHVALVSLLLRSEGFEHYRCDRNLSMGMNLGNMSKMLKCAGNDDIITIKADDGSDTVTFMFESPTQDKIADFEMKLMDIDSEHLGIPDAEYHSIVRMPSGEFSRICKDLSSIGDTVVISVTKEGVKFSTAGDIGTANIVLRQNTTVDKPEDAIVIEMNEPVSLSFALRYMNSFTKATPLSETVTISLSSELPVVVEYKVAEMGYIRYYLAPKIEEEEDTKPE
binding result: binds
